Results as given in patent publication US20250327113A1 (ESPERANCE PHARMACEUTICALS, published 2025).

Molecular target: T1, human LHRH receptor (human, UniProt P30968 1-328)
T1 sequence: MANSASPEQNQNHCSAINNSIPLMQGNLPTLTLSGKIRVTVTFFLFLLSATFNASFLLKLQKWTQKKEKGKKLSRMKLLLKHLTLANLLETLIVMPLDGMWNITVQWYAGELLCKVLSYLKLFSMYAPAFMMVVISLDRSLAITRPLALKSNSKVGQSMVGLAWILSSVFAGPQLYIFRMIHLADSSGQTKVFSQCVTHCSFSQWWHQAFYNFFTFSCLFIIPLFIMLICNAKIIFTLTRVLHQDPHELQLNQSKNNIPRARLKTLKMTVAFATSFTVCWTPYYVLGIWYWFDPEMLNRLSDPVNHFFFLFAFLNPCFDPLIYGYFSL
Assay: cell-based or functional assay

## KFAKFAKKFAKFAKKFAKQHWSYGLRPG [EP-100 (KFAKFAKKFAKFAKKFAKQHWSYGLRPG)]
  cytotoxicity IC50, MTT assay, 24 h, AN3-CA human endometrial cancer cells: 3.3 µM
  cytotoxicity IC50, MTT assay, 24 h, LNCaP prostate cancer cells: 1.5 µM
  cytotoxicity IC50, MTT assay, 24 h, MDA-MB-231 human breast cancer cells: 5.5 µM
  cytotoxicity IC50, MTT assay, 24 h, MDA-MB-435S breast cancer cells: 0.8 µM
  cytotoxicity IC50, MTT assay, 24 h, OVCAR-3 ovarian cancer cells: 3 µM
  cytotoxicity IC50, MTT assay, 24 h, PC-3 prostate cancer cells: 5.5 µM
